Data published in patent publication US20230257791A1.
pKd: −log10 of the molar value.

Target: recombinant gp140 from the clade C strain 92BR025 (HIV antigen), Sino Biological, Inc. (HIV, clade C strain 92BR025)
Experiment: SPR, Biacore T200; gp140 immobilized, GRFT as analyte at 12.5-400 nM; heterogeneous ligand model; mean ± SD of replicates

Sequence of recombinant gp140 from the clade C strain 92BR025 (HIV antigen), Sino Biological, Inc. (HIV, clade C strain 92BR025) (O12164 32-677): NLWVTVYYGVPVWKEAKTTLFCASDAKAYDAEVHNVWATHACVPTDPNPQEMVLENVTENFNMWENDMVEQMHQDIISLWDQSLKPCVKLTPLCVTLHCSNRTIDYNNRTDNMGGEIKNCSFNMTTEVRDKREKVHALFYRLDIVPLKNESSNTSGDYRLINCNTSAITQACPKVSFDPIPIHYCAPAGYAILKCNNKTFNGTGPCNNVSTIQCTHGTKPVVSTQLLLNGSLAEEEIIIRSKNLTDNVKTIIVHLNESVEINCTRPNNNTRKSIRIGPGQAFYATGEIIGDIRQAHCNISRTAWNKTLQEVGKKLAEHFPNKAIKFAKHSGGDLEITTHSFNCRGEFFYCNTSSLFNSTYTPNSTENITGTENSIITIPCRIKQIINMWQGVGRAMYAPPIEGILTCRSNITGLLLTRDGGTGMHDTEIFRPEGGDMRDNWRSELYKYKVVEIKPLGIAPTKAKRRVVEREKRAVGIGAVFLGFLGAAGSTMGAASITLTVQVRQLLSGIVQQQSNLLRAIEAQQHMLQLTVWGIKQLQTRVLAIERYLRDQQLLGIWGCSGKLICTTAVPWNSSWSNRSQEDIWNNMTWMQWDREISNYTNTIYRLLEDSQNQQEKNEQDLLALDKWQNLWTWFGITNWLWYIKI

precipitation-purified Griffithsin (GRFT), recombinant, expressed in E. coli strain DLF_0025 from plasmid pHC-Kan-phoAp-GRFT (from UniProt P84801 1-121)
pKd: 8.36
